# Measured values published in IntAct's records for PubMed 31515488.
# B1: Cyclin-H (Homo sapiens), P51946 (parent)
# chain: MYHNSSQKRHWTFSSEEQLARLRADANRKFRCKAVANGKVLPNDPVFLEPHEEMTLCKYYEKRLLEFCSVFKPAMPRSVVGTACMYFKRFYLNNSVMEYHPRIIMLTCAFLACKVDEFNVSSPQFVGNLRESPLGQEKALEQILEYELLLIQQLNFHLIVHNPYRPFEGFLIDLKTRYPILENPEILRKTADDFLNRIALTDAYLLYTPSQIALTAILSSASRAGITMESYLSESLMLKENRTCLSQLLDIMKSMRNLVKKYEPPRSEEVAVLKQKLERCHSAELALNVITKKRKGYEDDDYVSKKSKHEEEEWTDDDLVESL
# partner: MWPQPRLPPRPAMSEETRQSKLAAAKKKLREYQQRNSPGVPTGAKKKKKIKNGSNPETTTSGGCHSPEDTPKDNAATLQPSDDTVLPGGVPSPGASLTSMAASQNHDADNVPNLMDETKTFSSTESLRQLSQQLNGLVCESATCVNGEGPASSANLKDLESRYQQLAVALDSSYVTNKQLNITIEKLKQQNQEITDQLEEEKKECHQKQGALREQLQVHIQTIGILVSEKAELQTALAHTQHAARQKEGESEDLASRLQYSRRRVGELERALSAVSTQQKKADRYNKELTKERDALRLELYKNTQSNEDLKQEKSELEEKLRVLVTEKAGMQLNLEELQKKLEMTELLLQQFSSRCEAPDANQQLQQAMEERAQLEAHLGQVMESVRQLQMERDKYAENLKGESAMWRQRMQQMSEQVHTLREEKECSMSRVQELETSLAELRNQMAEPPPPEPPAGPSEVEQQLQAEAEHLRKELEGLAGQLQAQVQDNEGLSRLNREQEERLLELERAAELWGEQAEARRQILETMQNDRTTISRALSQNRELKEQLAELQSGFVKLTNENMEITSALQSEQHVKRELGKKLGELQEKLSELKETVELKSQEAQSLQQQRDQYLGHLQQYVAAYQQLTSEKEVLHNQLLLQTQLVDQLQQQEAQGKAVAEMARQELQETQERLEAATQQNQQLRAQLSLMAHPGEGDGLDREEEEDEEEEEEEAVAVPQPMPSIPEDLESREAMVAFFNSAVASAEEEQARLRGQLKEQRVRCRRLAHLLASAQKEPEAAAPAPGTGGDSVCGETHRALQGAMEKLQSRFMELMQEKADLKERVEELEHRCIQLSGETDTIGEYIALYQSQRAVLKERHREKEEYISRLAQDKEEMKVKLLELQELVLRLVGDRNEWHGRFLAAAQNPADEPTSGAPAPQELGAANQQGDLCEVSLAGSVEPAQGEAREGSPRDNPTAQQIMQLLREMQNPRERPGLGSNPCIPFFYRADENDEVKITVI
# B2: Segment polarity protein dishevelled homolog DVL-2 (Homo sapiens), O14641 (parent)
# chain: MAGSSTGGGGVGETKVIYHLDEEETPYLVKIPVPAERITLGDFKSVLQRPAGAKYFFKSMDQDFGVVKEEISDDNARLPCFNGRVVSWLVSSDNPQPEMAPPVHEPRAELAPPAPPLPPLPPERTSGIGDSRPPSFHPNVSSSHENLEPETETESVVSLRRERPRRRDSSEHGAGGHRTGGPSRLERHLAGYESSSTLMTSELESTSLGDSDEEDTMSRFSSSTEQSSASRLLKRHRRRRKQRPPRLERTSSFSSVTDSTMSLNIITVTLNMEKYNFLGISIVGQSNERGDGGIYIGSIMKGGAVAADGRIEPGDMLLQVNDMNFENMSNDDAVRVLRDIVHKPGPIVLTVAKCWDPSPQAYFTLPRNEPIQPIDPAAWVSHSAALTGTFPAYPGSSSMSTITSGSSLPDGCEGRGLSVHTDMASVTKAMAAPESGLEVRDRMWLKITIPNAFLGSDVVDWLYHHVEGFPERREARKYASGLLKAGLIRHTVNKITFSEQCYYVFGDLSGGCESYLVNLSLNDNDGSSGASDQDTLAPLPGATPWPLLPTFSYQYPAPHPYSPQPPPYHELSSYTYGGGSASSQHSEGSRSSGSTRSDGGAGRTGRPEERAPESKSGSGSESEPSSRGGSLRRGGEASGTSDGGPPPSRGSTGGAPNLRAHPGLHPYGPPPGMALPYNPMMVVMMPPPPPPVPPAVQPPGAPPVRDLGSVPPELTASRQSFHMAMGNPSEFFVDVM
# partner: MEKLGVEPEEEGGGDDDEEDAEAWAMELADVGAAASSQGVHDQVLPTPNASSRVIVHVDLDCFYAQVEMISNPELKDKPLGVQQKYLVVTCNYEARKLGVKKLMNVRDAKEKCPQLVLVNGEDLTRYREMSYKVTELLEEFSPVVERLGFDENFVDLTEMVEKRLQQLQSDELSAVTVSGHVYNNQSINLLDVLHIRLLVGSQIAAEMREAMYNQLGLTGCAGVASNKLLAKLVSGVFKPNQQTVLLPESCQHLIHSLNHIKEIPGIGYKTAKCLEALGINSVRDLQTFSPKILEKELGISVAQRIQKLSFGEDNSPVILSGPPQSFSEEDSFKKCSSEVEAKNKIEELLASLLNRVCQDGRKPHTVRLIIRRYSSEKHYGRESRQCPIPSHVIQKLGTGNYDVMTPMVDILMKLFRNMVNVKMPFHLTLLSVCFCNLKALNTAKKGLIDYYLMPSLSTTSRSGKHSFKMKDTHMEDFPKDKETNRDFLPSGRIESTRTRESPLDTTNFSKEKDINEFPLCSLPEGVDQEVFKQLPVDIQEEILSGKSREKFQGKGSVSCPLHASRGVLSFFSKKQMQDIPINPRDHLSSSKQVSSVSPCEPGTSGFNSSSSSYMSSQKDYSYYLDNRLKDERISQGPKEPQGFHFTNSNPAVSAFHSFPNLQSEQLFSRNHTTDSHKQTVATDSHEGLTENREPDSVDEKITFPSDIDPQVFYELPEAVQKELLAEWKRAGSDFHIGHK
# B3: Casein kinase II subunit alpha' (Homo sapiens), P19784 (parent)
# chain: MPGPAAGSRARVYAEVNSLRSREYWDYEAHVPSWGNQDDYQLVRKLGRGKYSEVFEAINITNNERVVVKILKPVKKKKIKREVKILENLRGGTNIIKLIDTVKDPVSKTPALVFEYINNTDFKQLYQILTDFDIRFYMYELLKALDYCHSKGIMHRDVKPHNVMIDHQQKKLRLIDWGLAEFYHPAQEYNVRVASRYFKGPELLVDYQMYDYSLDMWSLGCMLASMIFRREPFFHGQDNYDQLVRIAKVLGTEELYGYLKKYHIDLDPHFNDILGQHSRKRWENFIHSENRHLVSPEALDLLDKLLRYDHQQRLTAKEAMEHPYFYPVVKEQSQPCADNAVLSSGLTAAR
# B4: Transcription factor 12 (Homo sapiens), Q99081-3 (parent)
# chain: MNPQQQRMAAIGTDKELSDLLDFSAMFSPPVNSGKTRPTTLGSSQFSGSGIDERGGTTSWGTSGQPSPSYDSSRGFTDSPHYSDHLNDSRLGAHEGLSPTPFMNSNLMGKTSERGSFSLYSRDTGLPGCQSSLLRQDLGLGSPAQLSSSGKPGTAYYSFSATSSRRRPLHDSAALDPLQAKKVRKVPPGLPSSVYAPSPNSDDFNRESPSYPSPKPPTSMFASTFFMQDGTHNSSDLWSSSNGMSQPGFGGILGTSTSHMSQSSSYGNLHSHDRLSYPPHSVSPTDINTSLPPMSSFHRGSTSSSPYVAASHTPPINGSDSILGTRGNAAGSSQTGDALGKALASIYSPDHTSSSFPSNPSTPVGSPSPLTGTSQWPRPGGQAPSSPSYENSLHSLKNRVEQQLHEHLQDAMSFLKDVCEQSRMEDRLDRLDDAIHVLRNHAVGPSTSLPAGHSDIHSLLGPSHNAPIGSLNSNYGGSSLVASSRSASMVGTHREDSVSLNGNHSVLSSTVTTSSTDLNHKTQENYRGGLQSQSGTVVTTEIKTENKEKDENLHEPPSSDDMKSDDESSQKDIKVSSRGRTSSTNEDEDLNPEQKIEREKERRMANNARERLRVRDINEAFKELGRMCQLHLKSEKPQTKLLILHQAVAVILSLEQQVRERNLNPKAACLKRREEEKVSAVSAEPPTTLPGTHPGLSETTNPMGHM
# partner: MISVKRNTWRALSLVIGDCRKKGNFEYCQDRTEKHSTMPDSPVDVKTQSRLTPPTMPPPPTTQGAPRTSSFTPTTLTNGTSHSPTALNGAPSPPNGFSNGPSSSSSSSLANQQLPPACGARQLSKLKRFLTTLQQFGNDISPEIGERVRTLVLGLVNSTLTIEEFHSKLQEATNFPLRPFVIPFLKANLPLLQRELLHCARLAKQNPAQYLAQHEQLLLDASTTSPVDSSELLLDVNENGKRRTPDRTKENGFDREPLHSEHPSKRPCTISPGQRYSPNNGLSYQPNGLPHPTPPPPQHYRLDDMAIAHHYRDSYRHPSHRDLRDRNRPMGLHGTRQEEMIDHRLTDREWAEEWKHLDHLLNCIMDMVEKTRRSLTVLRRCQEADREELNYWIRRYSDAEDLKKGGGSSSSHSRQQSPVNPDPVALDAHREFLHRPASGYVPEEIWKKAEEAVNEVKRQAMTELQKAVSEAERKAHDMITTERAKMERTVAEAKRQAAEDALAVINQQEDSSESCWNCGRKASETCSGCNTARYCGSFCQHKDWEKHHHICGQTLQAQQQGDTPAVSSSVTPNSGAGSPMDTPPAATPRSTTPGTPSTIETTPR
# Variants of: B1
# Conditions: with goga2_human GOLGA2, Q08379
row,Variant,effect of a mutation on the interaction
1,N155T,disrupting interaction strength

# Variants of: B2
# Conditions: with poli_human POLI
row,Variant,effect of a mutation on the interaction
1,A53V,with no effect
2,T535I,with no effect

# Variants of: B3
# Conditions: with tri41_human TRIM41, Q8WV44
row,Variant,effect of a mutation on the interaction
1,N63T,with no effect

# Variants of: B4
# Conditions: with mtg8_human RUNX1T1, Q06455
row,Variant,effect of a mutation on the interaction
1,N606H,with no effect
